Results reported in article PMC3098852, “Molecular Design, Functional Characterization and Structural Basis of a Protein Inhibitor Against the HIV-1 Pathogenicity Factor Nef” (PLoS ONE, 2011).

Experiments:
[1] = biological target: T1, HIV-1 NefSF2 wild type, full length (1-210), C210A (HIV-1 SF2, UniProt P03407, C210A); experiment: ITC; settings: both partners purified
T1 construct: source: E. coli BL21(DE3), purified (Ni-NTA, Superdex 75)

[2] = biological target: T2, HIV-1 NefSF2 (Δ1-44), C210A (HIV-1 SF2, UniProt P03407 45-210, C210A); experiment: ITC; settings: both partners purified
T2 construct: source: E. coli BL21(DE3), purified (Ni-NTA, Superdex 75)

Row | Binder | Kd [1] | dH [1] | stoichiometry N [1] | Kd [2] | dH [2] | stoichiometry N [2]
1 | GST-NI1-2, GST fusion of Hck-SH3 (78-138) with RT loop V90SWSPD (domain or fragment, source: bacteria (pGEX-4T1 Tev vector), purified (GSH resin, Superdex 75); not shown: GST, N-terminal, kept) not shown | 140 ± 6.7 nM | -8.9 ± 0.02 kcal/mol | 1.07 |  |  | 
2 | NI1-2, Hck-SH3 (78-138) with RT loop V90SWSPD (domain or fragment, source: bacteria (pGEX-4T1 Tev vector), purified (GSH resin, Superdex 75)) not shown |  |  |  | 179 ± 29 nM | -8.16 ± 0.07 kcal/mol | 0.99
3 | NI1-3, Hck-SH3 (78-138) with RT loop Y90SPFSW (domain or fragment, source: bacteria (pGEX-4T1 Tev vector), purified (GSH resin, Superdex 75)) SEDIIVVALYDYYSPFSWDLSFQKGDQMVVLEESGEWWKARSLATRKEGYIPSNYVARVDS |  |  |  | 48 ± 11 nM | -7.99 ± 0.07 kcal/mol | 0.95
